Reference: PMC4931990

Molecular target: KDM2B/FBXL10 (UniProt Q8NHM5)
Experiment: co-IP, western blot
Settings: reference: wild type, EGF-treated; sites S374

## c-Fos (from UniProt P01100) S374A, EGF-treated
  binding against the reference: stronger
